Test results reported in PMC5612608 (Contrast Media & Molecular Imaging, 2017).

What was measured:
murine GRPRs = experiment: in vivo; parameters: species or system mouse; conditions: female NMRI mice, 30 min pi, 45 pmol, coinjected 20 nmol unlabeled peptide
Description: (§1) The animal experiments were planned and performed in accordance with the national legislation on the protection of laboratory animals, and the study plans were approved by the local committee for animal research ethics. Groups of 3-4 mice were used per data point. Biodistribution studies were performed on female immunocompetent NMRI mice (weight: 30 ± 2 g), female Balb/c nu/nu (inoculated 10 million PC-3 cells/mouse 21 days before the experiment, weight 17 ± 2 g), and male inbred immunodeficient NOD-SCID mice (5 million PC-3 cells/mouse, 35 days before the experiment, 31 ± 2 g). […] The injected radioactivity was adjusted to 30 kBq per animal. […] The mice were euthanized at 30 min pi by intraperitoneal injection of Ketalar-Rompun solution (10 mg/mL Ketalar and 1 mg/mL Rompun; 20 μL/g body weight). Blood samples were collected by cardiac puncture. Lung, liver, spleen, pancreas, stomach, small intestines, kidneys, muscle, bone, and the rest of intestines with their content were collected. The organs were weighed and their radioactivity content was measured in a gamma-counter. The data were corrected for background radiation. The organ uptake values were expressed as a percentage of injected dose per gram of tissue (% ID/g), except for the gastrointestinal tract and the remaining carcass, which were calculated as % ID per whole sample.

in vivo [1] = experiment: in vivo; parameters: species or system mouse; conditions: female, NMRI, mouse, in vivo, iv, 45 pmol, total radioactivity
Description: as §1

PC-3 xenografts = experiment: In vivo binding specificity in PC-3 xenografted Balb/c nu/nu mice; parameters: species or system mouse; conditions: female Balb/c nu/nu mice with subcutaneous PC-3 tumors, 3 h pi, 45 pmol, coinjected 20 nmol
Description: (§2) The animal experiments were planned and performed in accordance with the national legislation on the protection of laboratory animals, and the study plans were approved by the local committee for animal research ethics. Groups of 3-4 mice were used per data point. Biodistribution studies were performed on female immunocompetent NMRI mice (weight: 30 ± 2 g), female Balb/c nu/nu (inoculated 10 million PC-3 cells/mouse 21 days before the experiment, weight 17 ± 2 g), and male inbred immunodeficient NOD-SCID mice (5 million PC-3 cells/mouse, 35 days before the experiment, 31 ± 2 g).
(§3) Tumor targeting specificity and biodistribution over time were studied on PC-3 xenografted female Balb/c nu/nu and male NOD-SCID mice, respectively. […] An additional group of animals was coinjected with an excess of nonlabeled peptide (20 nmol). The mice were sacrificed at 3 h pi by intraperitoneal injection of Ketalar-Rompun solution (10 mg/mL Ketalar and 1 mg/mL Rompun; 20 μL/g body weight). […] The mice were euthanized at 3 and 24 h pi by cervical dislocation. Tumors, blood, and other organs of interest were collected, weighed, and measured on radioactivity content in a gamma-counter. […] The organ uptake values were expressed as a percentage of injected dose per gram of tissue (% ID/g), except for the gastrointestinal tract and the remaining carcass, which were calculated as % ID per whole sample.

PC-3 cells = experiment: Cellular processing (binding and internalization, acid wash) by PC-3 cells; assay type: cell-based, human; conditions: 1 nM, 37°C, 24 h incubation, 3 dishes
Description: The cells were cultured in RPMI-1640 media supplemented with 10% fetal calf serum, PEST (penicillin 100 IU/mL, streptomycin 100 μg/mL), and 2 mM L-glutamine (all from Biochrom AG, Berlin, Germany). This medium is referred to as complete medium in the text. Trypsin-EDTA (0.05% trypsin, 0.02% EDTA in buffer; Biochrom AG) was used for cell detachment. All in vitro experiments were performed in triplicate. […] At predetermined time points (1, 2, 4, 8, and 24 h after the start of incubation) the medium from 3 dishes was discarded and the cells were washed with ice-cold serum-free medium. The membrane-bound and internalized radioactivity were collected using the acid wash method described earlier.

[2] = Labeling stability: EDTA challenge and PBS, analysed by ITLC; assay type: physicochemical; conditions: chemical (label) stability, ITLC eluted with citric acid 0.2 M pH 2.0, average ± SD
Description: Radiolabeling with ^57Co was performed using 3.8–10 nmol (aq. 1 nmol/μL) of NOTA-PEG2-RM26 buffered with 80 μL ammonium acetate (0.2 M, pH 5.5). The mixture was incubated with ^57Co cobalt chloride (10–50 MBq) for 30 min at 60°C. For ^55Co labeling, 1.3 nmol of NOTA-PEG2-RM26 buffered with 80 μL ammonium acetate (0.2 M, pH 5.5) was heated by microwave irradiation for 1 min at 850 W in a sealed vial using a conventional microwave oven (Samsung MW82N-B). […] Labeling yield, radiochemical purity, and in vitro stability were analyzed using instant thin-layer chromatography (ITLC) strips (Agilent Technologies) eluted with citric acid (0.2 M, pH 2.0). In this system, free ^57/55Co migrates with the eluent front (Rf = 1.0) and the radiolabeled construct stays on the application point (Rf = 0.0). The system was previously validated by sodium dodecyl sulfate polyacrylamide gel electrophoresis (SDS-PAGE) and radio-HPLC [7, 8].

in vivo [3] = conditions: male, NOD-SCID, mouse, iv, 16.8 pmol, total radioactivity
Description: as §2, §3

CC(C)C[C@H](NC(=O)C[C@H](O)[C@H](CC(C)C)NC(=O)[C@H](Cc1c[nH]cn1)NC(=O)CNC(=O)[C@@H](NC(=O)[C@H](C)NC(=O)[C@H](Cc1c[nH]c2ccccc12)NC(=O)[C@H](CCC(N)=O)NC(=O)[C@@H](Cc1ccccc1)NC(=O)COCCOCCNC(=O)CN1CCN(CC(=O)O)CCN(CC(=O)O)CC1)C(C)C)C(N)=O [^57Co-NOTA-PEG2-RM26]
Accumulated radioactivity in receptor-positive organs (pancreas, small intestine, stomach) on coinjection of unlabeled peptide (murine GRPRs): significantly lower
tissue uptake at 0.5 h (in vivo [1]; kidney retention): 6 ± 2 %ID/g
tissue uptake at 0.5 h (in vivo [1]; liver uptake): 0.65 ± 0.05 %ID/g
Tumor uptake and uptake in GRPR-expressing organs on coinjection of excess unlabeled peptide (PC-3 xenografts): inhibited
Internalized fraction of cell-associated radioactivity (PC-3 cells): 12%
Release in the presence of excess EDTA ([2]; 1000-fold molar excess of EDTA disodium salt, 1 h, room temperature): 0.7 ± 0.2%
Release in PBS ([2]; PBS, 1 h incubation at room temperature): 0.07 ± 0.11%
tissue uptake at 3 h (in vivo [3]): 0.05 ± 0.02 %ID/g
